In patent publication EP4628097A1 (Innovent Biologics (Suzhou) Co., Ltd., dated 2025):
One block for each molecule: values may come before it.

Experiments:
[1] = biological target: Tie2-Fc (Beijing Sino Biological, Catalog No. 10700-H03H) (UniProt Q02763); experiment: ELISA: biotin-Ang2 (0.2 ug/mL) on coated Tie2-Fc, no antibody (blank of the blocking assay)
human Ang2 = biological target: T1, human Ang2 (human, UniProt O15123 19-496, limits assumed); experiment: blocking ELISA: biotinylated hAng2 on coated hTie2, antibody titrated from 300 nM
T1 construct: Bought proteins; also called hAng2-biotin; Ang2-Bio (Sino)
T1 sequence (looked up): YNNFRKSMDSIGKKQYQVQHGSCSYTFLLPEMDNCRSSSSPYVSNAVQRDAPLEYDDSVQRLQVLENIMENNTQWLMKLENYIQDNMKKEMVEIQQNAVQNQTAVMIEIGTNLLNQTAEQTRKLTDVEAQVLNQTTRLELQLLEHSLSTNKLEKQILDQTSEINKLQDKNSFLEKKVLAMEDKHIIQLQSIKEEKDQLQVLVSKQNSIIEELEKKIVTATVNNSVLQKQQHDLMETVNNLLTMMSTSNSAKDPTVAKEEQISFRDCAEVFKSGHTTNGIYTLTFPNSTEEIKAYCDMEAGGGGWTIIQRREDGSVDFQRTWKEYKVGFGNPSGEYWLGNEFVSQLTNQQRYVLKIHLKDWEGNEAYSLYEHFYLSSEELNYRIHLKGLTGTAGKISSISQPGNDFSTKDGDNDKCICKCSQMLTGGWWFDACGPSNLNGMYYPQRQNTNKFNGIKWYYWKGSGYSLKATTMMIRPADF

human VEGF165 = biological target: T2, human VEGF165 (human, UniProt P15692-4 27-191); experiment: BLI (ForteBio), bivalent binding; * exceeds ForteBio detection limit
T2 construct: all are put under this molecule; also called VEGF A; VEGFA
T2 sequence (P15692 other isoform, or with tags, fused parts or gaps limits assumed): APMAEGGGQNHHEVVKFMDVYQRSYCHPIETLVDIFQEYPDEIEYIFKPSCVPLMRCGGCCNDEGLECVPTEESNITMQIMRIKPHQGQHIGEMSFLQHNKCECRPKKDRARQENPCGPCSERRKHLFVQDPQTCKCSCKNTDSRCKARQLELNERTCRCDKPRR

Sequence of Tie2-Fc (Beijing Sino Biological, Catalog No. 10700-H03H) (Q02763 23-745 limits assumed): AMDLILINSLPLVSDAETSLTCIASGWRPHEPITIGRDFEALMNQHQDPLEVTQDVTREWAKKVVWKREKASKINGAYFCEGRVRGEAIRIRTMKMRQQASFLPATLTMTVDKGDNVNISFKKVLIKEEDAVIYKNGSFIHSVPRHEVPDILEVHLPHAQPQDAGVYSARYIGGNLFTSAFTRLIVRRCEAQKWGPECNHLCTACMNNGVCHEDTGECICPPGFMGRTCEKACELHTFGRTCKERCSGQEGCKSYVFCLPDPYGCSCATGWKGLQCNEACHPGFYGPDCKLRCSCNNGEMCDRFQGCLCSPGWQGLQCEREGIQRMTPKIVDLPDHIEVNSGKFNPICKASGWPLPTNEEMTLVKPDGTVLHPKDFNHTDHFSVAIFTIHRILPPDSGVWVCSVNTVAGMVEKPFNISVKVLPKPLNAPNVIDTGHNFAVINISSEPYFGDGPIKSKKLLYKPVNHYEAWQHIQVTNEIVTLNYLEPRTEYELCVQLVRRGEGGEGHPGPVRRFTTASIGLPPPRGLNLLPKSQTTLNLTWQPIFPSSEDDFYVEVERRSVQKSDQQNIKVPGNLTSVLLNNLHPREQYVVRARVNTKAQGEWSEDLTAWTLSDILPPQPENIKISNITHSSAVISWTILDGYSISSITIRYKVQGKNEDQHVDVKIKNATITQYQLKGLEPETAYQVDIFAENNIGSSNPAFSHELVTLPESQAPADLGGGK

OD450nm [1]: 3.45 OD450nm
Molecule: human Ang2 (from UniProt O15123 19-496) (ligand)

binding result (human Ang2): binds
B1: IEX04-008 (bispecific antibody)
chain: EVQLLESGGGLVQPGGSLRLSCAASGSIFSINAMGWHRQAPGKQRELVATMIGGSSTFYAESVQGRFTISRDNSKNTVYLQMNSLRAEDTAVYYCYADVTGRSGTSIWNKRDDYWGQGTQVTVSSGGGGSGGGGSEVQLLESGGGLVQPGGSLRLSCAASGSIFSINAMGWHRQAPGKQRELVATMIGGSSTFYAESVQGRFTISRDNSKNTVYLQMNSLRAEDTAVYYCYADVTGRSGTSIWNKRDDYWGQGTQVTVSSGGGGSGGGGSEVQLLESGGGLVQPGGSLRLSCAASGFALDYYAIGWFRQAPGKGLEGVSCISSGEGSTYYADSVKGRFTISRDNSKNTVYLQMNSLRAEDTAVYYCATDSRGDDVACEGLRRNEYDYWGQGTLVTVSS
notes: expressed in 293 cells; also called LA46E11.8 (VHH) + linker + LA46E11.8 (VHH) + LA24C11.10

koff (human VEGF165): ≤ 0.0002 s⁻¹
B2: LA46E11 (VHH)
VHH: QVQLEESGGGLVQPGGSLRLSCVASGSIFSINAMGWHRQAPGSQRELVATMIGGSSTFYADSVNGRFTISRDNAKNTVYLQMNSLKLEDTAVYYCYADVTGRSGTSIWNKRDDYWGQGTLVTVSS
notes: Alpaca immune-library VHH; also called LA46E11 (VEGFA VHH); anti-VEGF A VHH antibody
